koff, kon and Kd data for six variants are collected here from PMC9064986 (2022).

The labels stand for the following.
B1: BMPRII extracellular domain (ECD), wild type [human] / BMP10 growth factor (GF)-domain from Pro:BMP10 made in HEK EBNA cells [human] (parent complex)
chain 1: SQNQERLCAFKDPYQQDLGIGESRISHENGTILCSKGSTCYGLWEKSKGDINLVKQGCWSHIGDPQECHYEECVVTTTPPSIQNGTYRFCCCSTDLCNVNFTENFPPPDTTPLSPPHSFNRDET
chain 2: NAKGNYCKRTPLYIDFKEIGWDSWIIAPPGYEAYECRGVCNYPLAEHLTPTKHAIIQALVHLKNSQKASKACCVPTKLEPISILYLDKGVVTYKFKYEGMAVSECGCR

The variants in the first experiment derive from B1. As to the kind of experiment: SPR (Biacore); BMP10 immobilised on a CM5 Biacore chip; parent: 0.161. For orientation: Surface plasmon resonance follows binding to a sensor surface in real time, without labels.
By koff is commonly meant a measure of how fast the partners let go of each other. On to chain 1 Q66H, for which the dissociation rate constant (koff) came to 0.147 s⁻¹.

Consider chain 1 S81P, for which the off-rate constant (koff) amounted to 0.0423 s⁻¹.

As to chain 1 E72K, the off-rate (koff) stood at 0.158 s⁻¹.

On to chain 1 G63E, for which the koff was 0.609 s⁻¹.

As to chain 1 G63W, the off-rate (koff) turned out to be 0.433 s⁻¹.

Consider chain 1 G63A, for which the koff is 0.331 s⁻¹.

Variants of B1 are the subject of another experiment. As to the kind of experiment: SPR (Biacore); BMP10 immobilised on a CM5 Biacore chip; parent: 1.35e+05.
As usually defined, the kon is a measure of how fast the partners come together. Consider chain 1 Q66H, for which the kon came to 120000 M⁻¹ s⁻¹.

Take chain 1 S81P: the kon came to 129000 M⁻¹ s⁻¹.

With chain 1 E72K, the kon amounted to 148000 M⁻¹ s⁻¹.

For the variant chain 1 G63E, the kon is 3980 M⁻¹ s⁻¹.

chain 1 G63W: the on-rate constant (kon) was 1830 M⁻¹ s⁻¹.

Take chain 1 G63A: the on-rate (kon) worked out at 104000 M⁻¹ s⁻¹.

In a further experiment the parent is B1. As to the kind of experiment: SPR (Biacore); BMP10 immobilised on a CM5 Biacore chip; parent: 1.19e+03 nM.
As usually defined, the Kd is the concentration at which binding is half-saturated. For chain 1 Q66H, the Kd was 1220 nM.

With chain 1 S81P, the dissociation constant Kd was determined as 328 nM.

As for chain 1 E72K, the dissociation constant Kd was determined as 1070 nM.

For chain 1 G63E, the Kd turned out to be 153000 nM.

With chain 1 G63W, the dissociation constant Kd amounted to 237000 nM.

Regarding chain 1 G63A, the Kd is 3190 nM.
